US20200109196A1 (MOGAM INSTITUTE FOR BIOMEDICAL RESEARCH, published 2020)

Biological target: T1, recombinant CEACAM1 protein (UniProt P13688 35-428, limits assumed)
T1 sequence (looked up): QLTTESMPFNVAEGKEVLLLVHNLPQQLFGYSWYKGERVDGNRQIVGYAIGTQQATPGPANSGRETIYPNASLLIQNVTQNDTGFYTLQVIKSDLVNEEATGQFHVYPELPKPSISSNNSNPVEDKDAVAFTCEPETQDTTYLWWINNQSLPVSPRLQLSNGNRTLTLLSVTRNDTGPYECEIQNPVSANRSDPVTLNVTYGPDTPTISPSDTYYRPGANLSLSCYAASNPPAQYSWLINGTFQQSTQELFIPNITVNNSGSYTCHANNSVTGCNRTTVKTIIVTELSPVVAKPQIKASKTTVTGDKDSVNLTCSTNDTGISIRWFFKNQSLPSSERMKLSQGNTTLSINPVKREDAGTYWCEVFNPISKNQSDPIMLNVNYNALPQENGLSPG
Experiment: ELISA, coated recombinant CEACAM1, anti-human IgG-HRP detection
Method: Then, each well was washed 3 times with a washing buffer prepared by diluting 10 μl of Tween 20 (Sigma-Aldrich; Cat. No. P9146) in 990 μl of PBS.

B1: C25 (antibody, human IgG4 S228P, lambda, V domains shown)
VH: EVQLLESGGGLVQPGGSLRLSCAASGFTFSNYAMSWVRQAPGKGLEWVSVISHGGGSIYYADSVKGRLTISRDNSKNTLYLQMNSLRAEDTAVYYCARDPTKGYAPTFDYWGQGTLVTVSS
VL: QSVLTQPPSASGTPGQRVTISCSGSSSNIGNNYVSWYQQLPGTAPKLLIYADSKRPSGVPDRFSGSKSGTSASLAISGLRSEDEADYYCGAWDASLNGYVFGGGTKLTVLG
notes: Made in ExpiHEK293F cells, protein A purified. huIgG4 is the isotype control and anti-huIgG4 the detection reagent; the isotype is not otherwise stated; also called anti-CEACAM1 antibody C25
- EC50: 0.35 nM
